# Measurements as given in patent US6479250 (Amgen, dated 2002).
# B1: recombinant EBP from CHO cells transfected with the EBP gene (ligand)
# chain: DRHTVFWNSSNPKFRNEDYTIHVQLNDYVDIICPHYEDHSVADAAMEQYILYLVEHEEYQLCQPQSKDQVRWQCNRPSAKHGPEKLSEKFQRFTPFTLGKEFKEGHSYYYISKPIHQHEDRCLRLKVTVSGKITHSPQAHVNPQEKRLAA
# notes: the entry may begin with a leader at negative positions; also called CHO rEBP; rEBP
# Tests used:
# rat Eck receptor (rat) = rat Eck receptor (rat) (UniProt D3ZBN3); assay: cell-based or functional assay
# [1] = target: T1, eck receptor extracellular domain (eck-x), soluble, expressed in CHO cells (human, UniProt P29317 24-537); assay: BIAcore, EBP on immobilized eck-x
# T1 construct: extracellular domain; The construct ends at Asn534 (numbering of the eck cDNA of Lindberg et al.); Immobilized on BIAcore chips or on CNBr-Sepharose; also called soluble eck receptor; recombinant human Eck extracellular domain
# [2] = target: T2, eck receptor (p130^eck), full length, on LIM 2405 cells or on CHO 19.32 cells transfected with the full … (human, UniProt P29317 24-976); assay: Scatchard analysis of steady-state binding of 125I-rEBP to LIM2405 cells, 0° C.
# T2 construct: whole, on cells; also called EBP receptors
# Method: Nonspecific binding was determined from parallel reactions containing a 50 fold excess of unlabeled EBP.
# rat Eck receptor (rat), sequence (D3ZBN3 entry or part of it limits assumed, form in doubt): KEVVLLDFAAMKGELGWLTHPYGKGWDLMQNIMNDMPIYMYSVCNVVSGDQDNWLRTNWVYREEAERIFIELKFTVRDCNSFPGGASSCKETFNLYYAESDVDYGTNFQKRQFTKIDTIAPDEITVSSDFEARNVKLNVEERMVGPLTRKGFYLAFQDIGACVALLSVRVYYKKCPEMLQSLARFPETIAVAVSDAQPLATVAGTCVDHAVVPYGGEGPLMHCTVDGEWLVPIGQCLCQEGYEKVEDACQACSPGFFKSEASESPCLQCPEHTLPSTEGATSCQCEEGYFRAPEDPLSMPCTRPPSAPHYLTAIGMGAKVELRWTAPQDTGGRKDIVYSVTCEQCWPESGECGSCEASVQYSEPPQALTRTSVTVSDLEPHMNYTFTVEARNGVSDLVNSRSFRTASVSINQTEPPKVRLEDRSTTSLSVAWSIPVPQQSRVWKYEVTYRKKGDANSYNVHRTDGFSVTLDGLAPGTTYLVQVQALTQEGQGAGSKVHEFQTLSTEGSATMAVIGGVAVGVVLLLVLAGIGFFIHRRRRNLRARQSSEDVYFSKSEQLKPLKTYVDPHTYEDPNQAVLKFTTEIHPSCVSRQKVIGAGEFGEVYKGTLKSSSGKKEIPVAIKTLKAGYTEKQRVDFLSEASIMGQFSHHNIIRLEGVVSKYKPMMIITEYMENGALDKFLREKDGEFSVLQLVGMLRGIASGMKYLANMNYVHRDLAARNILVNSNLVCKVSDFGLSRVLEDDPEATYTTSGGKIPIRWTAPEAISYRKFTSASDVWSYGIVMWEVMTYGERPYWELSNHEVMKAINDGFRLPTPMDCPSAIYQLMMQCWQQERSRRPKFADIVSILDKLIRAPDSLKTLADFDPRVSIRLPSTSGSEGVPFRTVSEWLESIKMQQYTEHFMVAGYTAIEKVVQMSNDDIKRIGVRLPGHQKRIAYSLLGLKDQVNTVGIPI
# T1 sequence (P29317 24-537): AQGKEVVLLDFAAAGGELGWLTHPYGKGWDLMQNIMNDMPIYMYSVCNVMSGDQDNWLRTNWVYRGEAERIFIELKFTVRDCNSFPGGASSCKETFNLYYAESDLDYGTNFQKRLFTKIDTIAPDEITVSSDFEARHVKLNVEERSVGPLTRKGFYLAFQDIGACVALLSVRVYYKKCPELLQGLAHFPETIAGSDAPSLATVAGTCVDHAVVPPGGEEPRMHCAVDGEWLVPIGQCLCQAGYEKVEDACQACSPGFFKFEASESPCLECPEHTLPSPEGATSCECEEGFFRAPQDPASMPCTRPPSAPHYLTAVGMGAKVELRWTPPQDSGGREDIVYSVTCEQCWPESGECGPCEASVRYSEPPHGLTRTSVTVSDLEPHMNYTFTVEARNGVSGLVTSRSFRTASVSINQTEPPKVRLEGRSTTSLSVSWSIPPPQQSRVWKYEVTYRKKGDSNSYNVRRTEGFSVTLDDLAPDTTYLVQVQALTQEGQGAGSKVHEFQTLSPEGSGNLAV
# T2 sequence (P29317 24-976): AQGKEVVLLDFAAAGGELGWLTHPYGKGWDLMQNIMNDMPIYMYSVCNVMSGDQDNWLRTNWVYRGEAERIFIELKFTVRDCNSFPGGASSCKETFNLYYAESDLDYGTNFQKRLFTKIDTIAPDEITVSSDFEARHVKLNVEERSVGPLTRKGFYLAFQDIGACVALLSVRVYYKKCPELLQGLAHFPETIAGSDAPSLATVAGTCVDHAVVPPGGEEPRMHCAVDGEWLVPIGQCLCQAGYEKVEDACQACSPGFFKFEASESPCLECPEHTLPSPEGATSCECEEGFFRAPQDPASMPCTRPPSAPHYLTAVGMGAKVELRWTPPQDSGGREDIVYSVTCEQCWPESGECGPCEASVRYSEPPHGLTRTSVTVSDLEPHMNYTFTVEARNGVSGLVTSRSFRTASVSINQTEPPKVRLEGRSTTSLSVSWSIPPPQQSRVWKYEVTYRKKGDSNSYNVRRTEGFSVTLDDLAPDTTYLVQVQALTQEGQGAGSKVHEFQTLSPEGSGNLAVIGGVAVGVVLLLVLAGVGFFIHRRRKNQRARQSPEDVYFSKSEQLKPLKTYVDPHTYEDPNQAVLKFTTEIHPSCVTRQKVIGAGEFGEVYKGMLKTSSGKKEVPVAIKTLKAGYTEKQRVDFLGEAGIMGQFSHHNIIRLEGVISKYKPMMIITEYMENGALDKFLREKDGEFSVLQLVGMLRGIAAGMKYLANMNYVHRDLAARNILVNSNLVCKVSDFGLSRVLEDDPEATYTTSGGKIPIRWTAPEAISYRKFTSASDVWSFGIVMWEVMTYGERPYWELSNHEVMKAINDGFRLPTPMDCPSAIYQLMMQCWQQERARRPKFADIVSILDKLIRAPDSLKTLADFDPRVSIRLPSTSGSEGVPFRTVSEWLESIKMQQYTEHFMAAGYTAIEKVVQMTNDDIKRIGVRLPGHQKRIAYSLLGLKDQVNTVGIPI
binder,measurement,setting,value
B1,ED50 of survival of embryonic rat spinal cord neurons after 9 days in culture,rat Eck receptor (rat),< 10 µg/mL
same,enhancement of survival of embryonic rat spinal cord neurons after 9 days in culture,rat Eck receptor (rat),< 84%
same,Kd,[1],~24 nM
same,Kd,[2],28 nM
